Measurements reported in US20160068860A1, “TRANSGENIC PLANTS” (CONSEJO SUPERIOR DE INVESTIGACIONES CIENTIFICAS (CSIC), priority 2013, published 2016).
Changes are numbered by the printed parent chain. In names and notes the source's numbering stands.

B1: PYL4H82R V97A (AtPYL H82 and V97A) (receptor)
chain: MLAVHRPSSAVSDGDSVQIPMMIASFQKRFPSLSRDSTAARFHTHEVGPNQCCSAVIQEISAPISTVWSVVRRFDNPQAYKRFLKSCSVIGGDGDNAGSLRQVHVVSGLPAASSTERLDILDDERHVISFSVVGGDHRLSNYRSVTTLHPSPISGTVVVESYVVDVPPGNTKEETCDFVDVIVRCNLQSLAKIAENTAAESKKKMSL
notes: also called PYL4H82R (found combined with V97A)
B2: PYL4A194T: AtPYL4 ABA receptor mutant polypeptide with A194T substitution (SEQ ID NO. 60; nucleic acid SEQ ID NO: 55); also over-expressed in plants (protein, listed as Arabidopsis thaliana)
chain: B1 chain with R82H, A97V, A194T

Tests used:
[1] = tested on: Arabidopsis thaliana plants; experiment: Seedling establishment and early seedling growth of OE lines on ABA; format: in vivo; details: for ABA-mediated inhibition of seedling establishment: 0.25 or 0.5 μM ABA; for ABA-mediated inhibition of shoot growth (early seedling growth): 0.25-0.5 μM ABA
From the text: PYL4 or PYL4 mutants were cloned into pCR8/GW/TOPO entry vector (Invitrogen) and recombined by LR reaction into the gateway compatible ALLIGATOR2 vector (Bensmihen et al., 2004). This construct drives expression of PYL4 under control of the 35S CaMV promoter and introduces a triple HA epitope at the N-terminus of the protein. Selection of transgenic lines is based on the visualization of GFP in seeds, whose expression is driven by the specific seed promoter At2S3. The ALLIGATOR2-35S:3HA-PYL4 or mutant constructs were transferred to Agrobacterium tumefaciens C58C1 (pGV2260) (Deblaere et al., 1985) by electroporation and used to transform Columbia wild type plants by the floral dip method. T1 transgenic seeds were selected based on GFP visualization and sowed in soil to obtain the T2 generation. At least three independent transgenic lines were generated for each construct. Homozygous T3 progeny was used for further studies and expression of HA-tagged protein in 21-d-old seedlings was verified by immunoblot analysis using anti-HA-peroxidase (Roche).
After surface sterilization of the seeds, stratification was conducted in the dark at 4° C. for 3 d. Approximately 100 seeds of each genotype were sowed on MS plates supplemented with different ABA concentrations per experiment. To score seed germination, radical emergence was analyzed at 72 h after sowing. Seedling establishment was scored as the percentage of seeds that developed green expanded cotyledons and the first pair of true leaves at 7-d.

[2] = tested on: Arabidopsis thaliana plants; experiment: Root growth assay of OE lines on ABA; format: in vivo; details: 10 μM ABA, 10 d after transfer
Experimental: Seedlings were grown on vertically oriented MS plates for 4 to 5 days. Afterwards, 20 plants were transferred to new MS plates lacking or supplemented with the indicated concentrations of ABA. The plates were scanned on a flatbed scanner after 10-d to produce image files suitable for quantitative analysis of root growth using the NIH software ImageJ v1.37. As an indicator of shoot growth, the maximum rosette radius was measured.

PP2CA = experiment: Yeast two hybrid (Y2H) growth assay with PP2CA; format: cell-based, Arabidopsis; details: absence of ABA; growth on medium lacking His and Ade
Experimental: We conducted error-prone PCR mutagenesis by amplification of the PYL4 open reading frame using the following primers: FPYL4Ncol, 5″-GCAGCAGCCATGGTTGCCG TTCACCGTCCTTCT and RPYL4EcoRIstop: […] TCT TCTTCTT, and the following conditions: 2 mM dGTP, dCTP and dTTP, 0.5 mM dATP, 12 mM MgCl2 and Taq polymerase. The PCR product was Ncol-EcoRI doubly digested, cloned into the pGBKT7 vector and DH10B cells were transformed by electroporation. Thus, we generated an allele library in E. coli of approximately 10,000 PYL4 mutant clones. […] The library was shuttled to yeast AH109 by co-transformation with pGAD7-PP2CA. Yeast transformants were pooled and clones able to grow in the absence of exogenous ABA in medium lacking histidine and adenine were selected. Yeast plasmids were extracted, sequenced and retransformed in yeast cells to recapitulate the phenotype. Protocols for yeast two hybrid assays were similar to those described previously (Saez et al., 2008).

[3] = tested on: Arabidopsis thaliana plants; experiment: Stomatal aperture by whole leaf imaging; format: in vivo; details: OE plants; steady-state conditions
Experimental: 2-3 weeks-old seedlings grown in MS plates were used for water-loss assays. Four seedlings per genotype with similar growth, three independent experiments, were submitted to the drying atmosphere of a flow laminar hood. Kinetic analysis of waterloss was performed and represented as the percentage of initial fresh weight loss at each scored time point. Stomatal aperture measurements were done in leaves of 5-week-old plants grown under greenhouse conditions using whole leaf imaging (Chitrakar and Melotto, 2010). Staining of whole leaves with propidium iodide was conducted and the aperture of 30-40 stomata (ratio width/length, two independent experiments) was measured using a Leica TCS-SL confocal microscope.

Molecule	ABA-mediated inhibition of seedling establishment [1]	ABA-mediated inhibition of root growth [2]	interaction with PP2CA in Y2H assay (PP2CA)	stomatal aperture [3]	ABA-mediated inhibition of shoot growth (early seedling growth) [1]
PYL4: AtPYL4 wild type ABA receptor polypeptide (SEQ ID NO:3, At2g38310) [reference compound]	enhanced ABA-mediated inhibition of seedling establishment compared to non-transformed plants	enhanced ABA-mediated inhibition of root growth compared to non-transformed plants	ABA-dependent manner	more closed than those of non-transformed Col plants	
B1	higher sensitivity to ABA-mediated inhibition of seedling establishment than PYL4 OE plants		ABA-independent interaction with PP2CA		higher sensitivity to ABA-mediated inhibition of shoot growth than PYL4 OE plants
B2	higher sensitivity to ABA-mediated inhibition of seedling establishment than PYL4 OE plants	enhanced ABA-mediated inhibition of root growth compared to non-transformed plants	enhanced the interaction of PYL4 and PP2CA in the absence of ABA	more closed than those of non-transformed Col plants	higher sensitivity to ABA-mediated inhibition of shoot growth than PYL4 OE plants
